Test results: patent publication US20220243213A1, “ANTI-CRISPR INHIBITORS” (THE REGENTS OF THE UNIVERSITY OF CALIFORNIA, published 2022)
Numbering of substitutions follows the chain as printed.

Tests used:
[1] = tested on: AcrIIA1 (phage A006) (Listeria phage A006); assay: MST; details: 34 nM stated in Example 5 (p151)
[2] = tested on: AcrIIA1 NTD (Listeria phage A006); assay: MST
[3] = target: Listeria monocytogenes Cas9 (LmoCas9) (Listeria monocytogenes); assay: cell-based or functional assay
Aca1 R44A = target: T1, Aca1 R44A (Pseudomonas aeruginosa phage JBD30, R44A); assay: EMSA; binding completely abolished; 10-500 nM; details: tags: p15TV-L expression, Ni-NTA purified; chain copies: 2 (inferred)
T1 chain: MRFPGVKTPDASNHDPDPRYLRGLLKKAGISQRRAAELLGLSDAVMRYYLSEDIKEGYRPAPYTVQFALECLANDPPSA
Method: FIG. 4A: Representative electrophoretic mobility shift assays with indicated Aca1 mutants using the 110 bp upstream region from phage JBD30 as a substrate. Purified protein was added at concentrations of 10 nM, 50 nM, 100 nM, 250 nM and 500 nM. […] Non-denaturing acrylamide gels stained with SYBR gold are shown. FIG. 4B: The anti-CRISPR promoter region from phage JBD30 was cloned upstream of a promoterless lacZ gene. β-galactosidase activity was measured in a wild-type JBD30 lysogen (WT Aca1), JBD30 Aca1 mutant lysogens as indicated, and wild-type PA14 with no prophage (−). The mean from three independent experiments relative to the wild-type Aca1 JBD30 lysogen is shown, with error bars representing the standard error of the mean. FIG. 4C: Lysates of phage JBD30 (WT or Aca1R44A mutant) were spotted in 10-fold serial dilutions on bacterial lawns of wild-type P. aeruginosa PA14, a CRISPR deletion version of PA14 (PA14ΔCRISPR), or on the deletion strain bearing a plasmid that expresses Aca1. These phages are targeted by the CRISPR-Cas system in the absence of anti-CRISPR activity. Representative images from three biological replicates are shown. […] FIG. 4E: The transcript levels of the acrIF1 and aca1 genes in phages bearing anti-CRISPR promoter operator mutants and aca mutants were determined by RT-qPCR. […]

Aca1 [4] = target: T2, Aca1 (Pseudomonas aeruginosa phage JBD30); assay: EMSA; 10 mM HEPES pH 7.5, 1 mM MgCl2, 20 mM KCl, 1 mM TCEP, 6% glycerol, on ice; second shifted band at higher concentrations; details: tags: p15TV-L expression, Ni-NTA purified; chain copies: 2 (inferred; HTH proteins stated generally dimeric)
T2 chain: T1 chain with A44R
Source text: Aca1 acts on the acr promoter. Aca1 proteins are bioinformatically predicted to contain a helix-turn-helix (HTH) DNA-binding motif (FIG. 8A). HTH-containing proteins are generally dimeric and bind to inverted repeat sequences. We identified two such sites with very similar sequences which we refer to as IR1 and IR2, flanking the −35 region of the acrIF1 promoter (FIG. 3B). To determine whether Aca1 could bind to the anti-CRISPR promoter region, purified Aca1 was mixed with a 110 bp dsDNA fragment containing the acr promoter and an electrophoretic mobility shift assay (EMSA) was performed. […] At higher Aca1 concentrations, a second shifted band was observed, consistent with the presence of two Aca1 binding sites within this fragment.
Electrophoretic mobility shift assay. Varying concentrations of purified Aca1 or Aca1 mutants were mixed with 20 ng of target DNA (gel purified PCR product or annealed oligo) in binding buffer (10 mM HEPES pH 7.5, 1 mM MgCl₂, 20 mM KCl, 1 mM TCEP, 6% v/v glycerol) and incubated on ice for 20 minutes. The DNA-protein complexes were separated by gel electrophoresis at 100 V on a 6% native 0.5× TBE polyacrylamide gel. Gels were stained at room temperature with Sybr gold (Invitrogen) and visualized according to the supplier's instructions. Bands were quantified using Image Lab 6.0 software (BioRad). […]

Aca1 (in cell) = target: T3, Aca1 (in cell) (Pseudomonas aeruginosa phage JBD30); assay: cell_activity; lacZ reporter in P. aeruginosa JBD30 lysogen
T3 chain: T1 chain with A44R

Aca2 ZF40 = target: T4, Aca2 ZF40 (Pectobacterium phage ZF40, UniProt H9C180 H9C180:1-116); assay: cell_activity; lacZ reporter in E. coli; text listing of SEQ 6 differs from the Table 8 sequence for this accession; details: chain copies: 2
T4 sequence: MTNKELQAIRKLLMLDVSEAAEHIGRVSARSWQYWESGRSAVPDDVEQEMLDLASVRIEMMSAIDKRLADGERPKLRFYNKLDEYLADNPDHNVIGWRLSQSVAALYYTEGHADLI
Source text: By aligning the intergenic regions found immediately upstream of anti-CRISPR genes associated with aca2, we detected a conserved inverted repeat sequence that could act as a binding site for Aca2 proteins (FIG. 11B). […] To investigate the functions of Aca2 and Aca3, the acrlaca regions from Pectobacterium phage ZF40 and from N. meningitidis strain 2842STDY5881035 were investigated as representatives of the Aca2 and Aca3 families, respectively. The putative promoter regions of the anti-CRISPR genes in these two operons (FIGS. 11B and 11D) were cloned upstream of a promoterless lacZ reporter gene carried on a plasmid. When assayed in E. coli, both regions mediated robust transcription of the reporter as detected by measuring β-galactosidase activity in cell extracts (FIG. 7).
β-galactosidase reporter assays. β-galactosidase reporter plasmids were transformed into DH5a and PA14. Overnight cultures of transformed cells were subcultured 1:100 and grown for ˜3 hours with shaking (OD₆₀₀=0.4-0.7). β-galactosidase activity was then quantified using a method derived from Zhang and Bremer, 1995. […] The reaction was stopped with the addition of 700 μL of 1 M Na₂CO₃, A420 and A550 were measured, and Miller Units were calculated.

Aca1 [5] = target: T2, Aca1; assay: EMSA; two shifted bands; 10-250 nM Aca1; details: tags: p15TV-L expression, Ni-NTA purified; chain copies: 2 (inferred; HTH proteins stated generally dimeric)
Method: (§1) FIG. 3E: Electrophoretic mobility shift assays (EMSAs) were performed utilizing a fragment of dsDNA with the sequence shown, which encompasses the acr promoter region. The IR1 and IR2 mutants contained the triple and quadruple base substitutions indicated under the DNA sequence. Representative non-denaturing polyacrylamide gels stained with SYBR gold are shown. Purified Aca1 was added to the DNA at concentrations of 10 nM, 50 nM, 100 nM and 250 nM. […] FIG. 3F: The anti-CRISPR promoter region from phage JBD30 either wild-type (WT), or bearing IR1 and/or IR2 mutations was cloned upstream of a promoterless lacZ gene. β-galactosidase activity was measured in PA14 (−Aca1) or in a JBD30 lysogen (+Aca1). The mean β-galactosidase activity relative to the wild-type promoter is shown, with error bars representing standard error of the mean (n≥3). FIG. 3G: Ten-fold dilutions of lysates of anti-CRISPR phage JBD30 carrying the indicated inverted repeat mutations were applied to lawns of CRISPR-Cas intact PA14 or CRISPR deleted PA14 (PA14ΔCRISPR). Representative images from three biological replicates are shown.
Aca1 acts on the acr promoter. Aca1 proteins are bioinformatically predicted to contain a helix-turn-helix (HTH) DNA-binding motif (FIG. 8A). HTH-containing proteins are generally dimeric and bind to inverted repeat sequences. […]

Aca1 [6] = target: T2, Aca1; assay: EMSA; no shift up to 250 nM; details: tags: p15TV-L expression, Ni-NTA purified; chain copies: 2 (inferred; HTH proteins stated generally dimeric)
Method: as §1, with “Representative” for “FIG. 3E: Electrophoretic mobility shift assays (EMSAs) were performed utilizing a fragment of dsDNA with the sequence shown, which encompasses the acr promoter region. The IR1 and IR2 mutants contained the triple and quadruple base substitutions indicated under the DNA sequence. Representative”
Aca1 acts on the acr promoter. Aca1 proteins are bioinformatically predicted to contain a helix-turn-helix (HTH) DNA-binding motif (FIG. 8A). HTH-containing proteins are generally dimeric and bind to inverted repeat sequences. We identified two such sites with very similar sequences which we refer to as IR1 and IR2, flanking the −35 region of the acrIF1 promoter (FIG. 3B). […]

Question: With “phage A006 anti-CRISPR promoter palindrome” as the molecule, how does the Kd [1] read?
Answer: 26 nM

Question: And the Kd [2]?
Answer: 28 nM

Question: How did the Nanoluciferase (NLuc) expression from the anti-CRISPR locus promoter, fold change in RLU, ΦA006acr::nluc lysogen [3] turn out when “AcrIIA1 (full-length, from Listeria phage ΦA006)” was run?
Answer: 5 fold

B1: JBD30 acrIF1 promoter 110 bp upstream region (dsDNA)
DNA 1: TGGCCACTTTCGGACAAGCGGCACACTGTGCCTATTGCGAATTAGGCACAATGTGCCTAATCTAACGTCATGCCAGCCACAACGGCGAGGCGCCAACAAGGATTCAAACC
DNA 2: GGTTTGAATCCTTGTTGGCGCCTCGCCGTTGTGGCTGGCATGACGTTAGATTAGGCACATTGTGCCTAATTCGCAATAGGCACAGTGTGCCGCTTGTCCGAAAGTGGCCA
Question: What does the source list for B1?
Answer: binding result (Aca1 R44A): no binding; Kd (Aca1 [4]): ~50 nM; activity (Aca1 (in cell)): 5 fold repression

B2: ZF40 acrIF8 promoter region (dsDNA)
DNA 1: AGCCTCACCTCCGGCGTTGCCGTGGCGCTGTGTGATTTACAGGAAATAAAAAGGCCACGAATGCGGCCTTAGCGATTAAAAAATATGAAATGCCTTGCTTGTTCGCGATTGCGAACATATAATTTATTCATCGGTTCGAG
DNA 2: CTCGAACCGATGAATAAATTATATGTTCGCAATCGCGAACAAGCAAGGCATTTCATATTTTTTAATCGCTAAGGCCGCATTCGTGGCCTTTTTATTTCCTGTAAATCACACAGCGCCACGGCAACGCCGGAGGTGAGGCT
Question: Which activity (Aca2 ZF40) does the source give for B2 here?
Answer: 100 fold repression

B3: acrIF1 promoter IR1-IR2 oligo WT (dsDNA)
DNA 1: ACAAGCGGCACACTGTGCCTATTGCGAATTAGGCACAATGTGCCTAATCTAACG
DNA 2: CGTTAGATTAGGCACATTGTGCCTAATTCGCAATAGGCACAGTGTGCCGCTTGT
Question: Does B3 bind (Aca1 [5])?
Answer: binds

B4: IR1+IR2 mutant oligo (dsDNA)
DNA 1: ACAAGCGTCGTACTGTGCCTATTGCGAGCTAGTCCCAATGTGCCTAATCTAACG
DNA 2: CGTTAGATTAGGCACATTGGGACTAGCTCGCAATAGGCACAGTACGACGCTTGT
Question: Does B4 bind (Aca1 [6])?
Answer: no binding
